Experimental findings from patent US6040160A, “Method of producing L-lysine by fermentation” (Ajinomoto Co., Inc., priority 1993, dated 2000) are described below.

What all share (assay type): biochemical, E. coli
Series [1] concerns AKIII. Kind of series: AKIII enzyme activity and inhibition by L-lysine, cell-free extract of GT3 transformants. The source says: No. 24, No. 43, No. 48, No. 60, No. 80, No. 117, No. 126, No. 149, No. 150, No. 156, No. 158, No. 167, No. 169 and No. 172 were selected as representative strains of the aforementioned 14 groups. Mutant plasmids derived from pLYSC1 were recovered from each of them, and designated as pLYSC1*24, pLYSC1*43, pLYSC1*48, pLYSC1*60, pLYSC1*80, pLYSC1*117, pLYSC1*126, pLYSC1*149, pLYSC1*150, pLYSC1*156, pLYSC1*158, pLYSC1*167, pLYSC1*169 and pLYSC1*172, respectively. An AK completely deficient strain GT3 was transformed with them and the wild type pLYSC1. A cell-free extract was prepared from each of transformed strains, and the enzyme activity of AKIII was measured.
The cell-free extract (crude enzyme solution) was prepared as follows. A transformed strain was cultivated in a 2×TY medium, and collected at an OD660 of about 0.8. Cells were washed with 0.02 M KH2 PO4 (pH 6.75)-0.03 M β-mercaptoethanol under a condition of 0° C., and the cells were ruptured by sonication (0° C., 100 W, 30 minutes×4). A ruptured cell solution was centrifuged at 33 krpm for 1 hour under a condition of 0° C. to obtain a supernatant,to which ammonium sulfate was added to give 80% saturation. After centrifugation, a pellet was dissolved in 0.02 M KH2 PO4 (pH 6.75)-0.03 M β-mercaptoethanol, and stored at 0° C. overnight.
The enzyme activity of AKIII was measured in accordance with a method of Stadtman et al. (Stadtman, E. R., Cohen, G. N., LeBras, G., and Robichon-Szulmajster, H., J. Biol. Chem., 236, 2033 (1961)). Namely, a reaction solution having the following composition was incubated at 27° C. for 45 minutes, and an FeCl3 solution (2.8 N HCl 0.4 ml +12% TCA 0.4 ml +5% FeCl3. 6H2 O/0.1 N HCl 0.7 ml) was added to develop a color, which was centrifuged followed by measurement of absorbance of a supernatant at 540 nm. The activity was indicated by an amount of hydroxamic acid generated per minute (1 U=1 μmol/min). The molar absorption coefficient was 600. Potassium aspartate was removed from the reaction solution to be used as a blank.
Various concentrations of L-lysine were added to the enzyme reaction solution for measurement of the enzyme activity of AK, and the degree of inhibition by L-lysine was examined.
On the contrary, the mutant AKIII's obtained this time had various degrees of desensitization, however, inhibition by L-lysine was desensitized in all of 14 species. […] The specific activity per total protein, which might be affected by growth situations of cell and preparation of samples, was equal to or more than that of the wild type in almost all cases, in which there was little problem of decrease in activity due to the introduction of mutation (Table 3). […]

Series [2] concerns DDPS. In words: DDPS enzyme activity and inhibition by L-lysine, cell-free extract of JE7627 transformants. On the procedure: Mutant pdapA2's were recovered from the 36 strains described above. A dapA-deficient strain, JE7627 was transformed with them and the wild type pdapA2, respectively. A cell-free extract was prepared from each of the transformed strains, and the enzyme activity of DDPS was measured.
(§1) The cell-free extract (crude enzyme solution) was prepared as follows. A transformed strain was cultivated in a 2×TY medium (1.6% Bacto trypton, 1% Yeast extract, 0.5% NaCl), and collected at an optical density at 660 nm (OD660) of about 0.8. A cell pellet was washed with 0.85% NaCl under a condition of 0° C., and suspended in 20 mM potassium phosphate buffer (pH 7.5) containing 400 mM KCl. The cells were ruptured by sonication (0° C., 200 W, 10 minutes). A ruptured cell solution was centrifuged at 33 krpm for 1 hour under a condition of 0° C. to obtain a supernatant to which ammonium sulfate was added to give 80% saturation to be stored at 0° C. overnight followed by centrifugation. A pellet was dissolved in 20 mM potassium phosphate buffer (pH 7.5)-400 mM KCl.
The enzyme activity of DDPS was measured in accordance with a method of Yugari et al. (Yugari, Y. and Gilvarg, C., J. Biol. Chem., 240, 4710 (1962)). Namely, the absorbance of a reaction solution having the following composition was measured at 37° C. with a spectrophotometer at a wavelength of 270 nm in a time-dependent manner. And generated dihydrodipicolinate was measured. Sodium pyruvate was removed from the reaction system to be used as a blank.
Various concentrations of L-lysine were added to the enzyme reaction solution during measurement of the enzyme activity of DDPS, and the degree of inhibition by L-lysine was examined.

For series [3], the system named is DDPS (dihydrodipicolinate synthase). In words: DDPS activity of crude enzyme solutions from W3110(tyrA) strains and inhibition by L-lysine. On the procedure:
as §1, with “A pellet was dissolved in 20 mM potassium phosphate buffer (pH 7.5)-400 mM KCl.” left out
The enzyme activity of DDPS was measured in accordance with a method of Yugari et al. (Yugari, Y. and Gilvarg, C., J. Biol. Chem., 240, 4710 (1962)). Namely, the absorbance of a reaction solution having the following composition was measured at 37° C. with a spectrophotometer at a wavelength of 270 nm in a time-dependent manner. And generated dihydrodipicolinate was measured. […]
Crude enzyme solutions were prepared from W3110(tyrA), W3110(tyrA)/pdapA and W3110(tyrA)/pdapA* in the same manner as in Example 1, the DDPS (dihydrodipicolinate synthase) activity was measured, and the degree of inhibition of the DDPS activity by L-lysine was examined.

Where [4] appears, read: in the presence of 5 mM of L-lysine.
[5] abbreviates: various concentrations of L-lysine, FIG. 2.

Changes are numbered by the printed parent chain.

B1: Wild type: wild type aspartokinase III (AKIII) of E. coli encoded by lysC on pLYSC1 (protein, UniProt P08660 2-449, looked up)
Lysine-sensitive …: SEIVVSKFGGTSVADFDAMNRSADIVLSDANVRLVVLSASAGITNLLVALAEGLEPGERFEKLDAIRNIQFAILERLRYPNVIREEIERLLENITVLAEAAALATSPALTDELVSHGELMSTLLFVEILRERDVQAQWFDVRKVMRTNDRFGRAEPDIAALAELAALQLLPRLNEGLVITQGFIGSENKGRTTTLGRGGSDYTAALLAEALHASRVDIWTDVPGIYTTDPRVVSAAKRIDEIAFAEAAEMATFGAKVLHPATLLPAVRSDIPVFVGSSKDPRAGGTLVCNKTENPPLFRALALRRNQTLLTLHSLNMLHSRGFLAEVFGILARHNISVDLITTSEVSVALTLDTTGSTSTGDTLLTQSLLMELSALCRVEVEEGLALVALIGNDLSKACGVGKEVFGVLEPFNIRMICYGASSHNLCFLVPGEDAEQVVQKLHSNLFE
In the case of B1, the “Inhibition of AKIII by L-lysine” value in series [1] (5 mM of L-lysine) and in series [1] (setting [4]) was “about 100%” in each case. The Specific activity in series [1] (1 U=1 μmol/min hydroxamic acid) came out at 0.0247 U/mg protein. For the same molecule, the “Degree of desensitization of inhibition” value in series [1] (AK activity in the presence of 100 mM of L-lysine with respect to AK activity in the absence of L-lysine) came to 0%.

B2: wild type DDPS: wild type dihydrodipicolinate synthase of E. coli (dapA product) (protein, UniProt P0A6L2 1-292, looked up)
4-hydroxy-tetrahydrodipicolina …: MFTGSIVAIVTPMDEKGNVCRASLKKLIDYHVASGTSAIVSVGTTGESATLNHDEHADVVMMTLDLADGRIPVIAGTGANATAEAISLTQRFNDSGIVGCLTVTPYYNRPSQEGLYQHFKAIAEHTDLPQILYNVPSRTGCDLLPETVGRLAKVKNIIGIKEATGNLTRVNQIKELVSDDFVLLSGDDASALDFMQLGGHGVISVTANVAARDMAQMCKLAAEGHFAEARVINQRLMPLHNKLFVEPNPIPVKWACKELGLVATDTLRLPMTPITDSGRETVRAALKHAGLL
With B2, the “Inhibition of DDPS by L-lysine” value in series [2] (setting [4]) is ~80%; in series [2] (setting [5]), “suffered inhibition by L-lysine”.

B3: pdapAS24 (protein)
chain: B2 4-hydroxy-tetrahydrodipicolina … with H118Y, A207T, G224E
As for B3, the “Specific activity of DDPS as compared with the wild type” value in series [2] is recorded as “lowered a little”. Also, the “Inhibition of DDPS by L-lysine” value in series [2] (setting [5]) was “desensitized”. Further, in series [3], the “Specific activity relative to the wild type enzyme (DDPS)” value is “about 1/2”.
